# Measured values from PMC3289641.
# Biological target: GST-fused core106 (HCV core, residues 1-106) (hepatitis C virus (genotype not stated))
# Experiment: AlphaScreen or HTRF; GST-core106 and Flag-core106 at 150 nM each; glutathione donor beads and anti-Flag acceptor beads 20 ug/ml; room temperature; protein buffer 100 mM HEPES pH 7.5, 1 mM EDTA, 5 mM DTT, 0.1% CHAPS, 10% glycerol; untagged core106 added as reference inhibitor
substance,measurement,value
"HCV core106 (1-106 residues), untagged core106 domain (domain or fragment)",percent inhibition of core dimerization,91%
